{"source": "the RNAGym collection of RNA variant scans (doi:10.7554/elife.90254)", "parents": {"B1": {"name": "LINE1-full (parent)", "chain": "UACGUAGGUGGUUUUCCCCUGAUAGUGCUAAGGGGGCCUGGAAGUUUGGACUGGGCAGAGCUCAACACAGCGUGGCAAAGUGGCUGUGGCUAGACUGCCUCUCUGGAUUCCUCGUCACUCAGCAGGGCAUCUCUGAGAGAAAUGCC"}}}
{"variants_of": "B1", "test": "self-cleavage, relative activity (ratio to wild type); higher = more cleavage; in vitro, sequencing; the parent is a self-cleaving ribozyme"}
{"variant": "UACGUAGGUGGUUUUCCCCUGAUAGUGCUAAGGGGGCCUGGUAGUUUGGACUGGGCAGAGCUCAACACAGCGUGGCAAAGUGGCUGUGGCUAGACUGCCUCGCUGGAUUCCUCGUCACUCAGCAGGGCAUCUCUGAGAGAAAUGCC", "note": "[A42U U102G]", "self-cleavage": 0.09}
{"variant": "UACGUAGGCGGUUUUCCCCUGAUAGUGCUAAGGGGGCCUGGAAGUUUGGACUGGGCAGAGCUCAACACAGCGUGGCAAAGUGGCUGUGGCUAGACUGCCUCUCUGGAUUCCUCGUCACUCAGCAGGGCAUCUCUGAGGGAAAUGCC", "note": "[U9C A138G]", "self-cleavage": 1.21}
{"variant": "UACGUAGGUGGUUUUCCCCUGACAGUGCUUAGGGGGCCUGGAAGUUUGGACUGGGCAGAGCUCAACACAGCGUGGCAAAGUGGCUGUGGCUAGACUGCCUCUCUGGAUUCCUCGUCACUCAGCAGGGCAUCUCUGAGAGAAAUGCC", "note": "[U23C A30U]", "self-cleavage": 1.15}
{"variant": "UACGUAGGUGGUUCUCCCCUGAUAGUGCUAAGGGGGCCUGGAAGUUCGGACUGGGCAGAGCUCAACACAGCGUGGCAAAGUGGCUGUGGCUAGACUGCCUCUCUGGAUUCCUCGUCACUCAGCAGGGCAUCUCUGAGAGAAAUGCC", "note": "[U14C U47C]", "self-cleavage": 1.56}
{"variant": "UACGUAGGUGGUUUUCCCCUGUUAGUGCUAAGGGGGCCUGGAAGUUUGGACUGGGCAGAGCUCAACACAGCGUGGCAAAGUGGCUGUGGCUUGACUGCCUCUCUGGAUUCCUCGUCACUCAGCAGGGCAUCUCUGAGAGAAAUGCC", "note": "[A22U A92U]", "self-cleavage": 0.63}
{"variant": "UACGUAGGUGGUUAUCCCCUGAUAGUGCUAAGGGGGCCUGGAAGUUUGGACUGGGCAGAGCUCAACACAGCGUGGCAAAGUGGCUGUGGCUAGACUGCCUCUCUGGAUUCCUCGUCACUCAGCAGGGCGUCUCUGAGAGAAAUGCC", "note": "[U14A A129G]", "self-cleavage": 1.84}
{"variant": "UACGUAGGUGGUUUUCCCCUGAUAGUGCUAAGGGGGCCUGGAAGUUUGGGCUGGGCAGAGCUCAACACAGCGUGGCAAAGUGGCUGUGGCUAGACUGCCUCUCUGGAUUCCUCGUCACUCAGCAGGGCAUCUCUGAGAGAAAUUCC", "note": "[A50G G144U]", "self-cleavage": 0.25}
{"variant": "UACGUAGGUGGUUUUCCCCUGAUAGUGCAAAGGGGGCCUGGAAGUUUGGACUGGGCAGAGCUCAACACAGCGUGGCAAAGUGGCUGUGGCUAGACUGCCUCUCUGGAUUCCUCGUCACUCAGCAGGGCAUCUCUGAGAGAAAUGCC", "note": "[U29A]", "self-cleavage": 1.23}
{"variant": "UACGUAGGUGGUUUUCCCCCGAUAGUGCUAAGGGGGCCUGGAAGUUUGGACUGGGCAGAGCUCAACACAGCGUGGCAAAGUGGCUGUGGCUAGAUUGCCUCUCUGGAUUCCUCGUCACUCAGCAGGGCAUCUCUGAGAGAAAUGCC", "note": "[U20C C95U]", "self-cleavage": 0.27}
{"variant": "UACGUAGGUGGUUUUCCCCUGAUAGUGCUAAGGGAGCCUGGAAGUUUGGACUGGGCAGAGCUCAACACAGCGUGGCAAAGUGGCUGUGGCUAGACUGCCUCUCUGGAUUCCUCGUCGCUCAGCAGGGCAUCUCUGAGAGAAAUGCC", "note": "[G35A A117G]", "self-cleavage": 1.7}
{"variant": "UACGUAGGUGGUUUUCCCCUGAUAGUGCUAAGGGGGCCUGGAAGUUUGGACUGGGCAGAGCUCAACACAGCGUGGCAAGGUGGCUGUGGCUAGACUGCCUCUCUGGAUUCCUCGUCUCUCAGCAGGGCAUCUCUGAGAGAAAUGCC", "note": "[A79G A117U]", "self-cleavage": 1.06}
{"variant": "AACGUAGGUGGUUUUCCCCUGAUAGUGCUAAGGGGGCCUGGAAGUUUGGACUGGGCAGAGCUCAACACAGCGUGGCAAAGUGGCUGUGGCUAGACUGCCUCUCUGGAUUCCUCGUCACUCAGCAGGGCGUCUCUGAGAGAAAUGCC", "note": "[U1A A129G]", "self-cleavage": 1.47}
{"variant": "UACGUAGGUGGUUUUCCCCUGAUAGUGCUAAGGGGGCCUGGGAGUUUGGACUGGGCUGAGCUCAACACAGCGUGGCAAAGUGGCUGUGGCUAGACUGCCUCUCUGGAUUCCUCGUCACUCAGCAGGGCAUCUCUGAGAGAAAUGCC", "note": "[A42G A57U]", "self-cleavage": 0.14}
{"variant": "CACGUAGGUGGUUUUCCCCUGAUAGUGCUAAGGGGGCCUGGAAGGUUGGACUGGGCAGAGCUCAACACAGCGUGGCAAAGUGGCUGUGGCUAGACUGCCUCUCUGGAUUCCUCGUCACUCAGCAGGGCAUCUCUGAGAGAAAUGCC", "note": "[U1C U45G]", "self-cleavage": 0.48}
{"variant": "UACGUAGGUGGUUUCCCCCUGAUAGUGCUAAGGGGCCCUGGAAGUUUGGACUGGGCAGAGCUCAACACAGCGUGGCAAAGUGGCUGUGGCUAGACUGCCUCUCUGGAUUCCUCGUCACUCAGCAGGGCAUCUCUGAGAGAAAUGCC", "note": "[U15C G36C]", "self-cleavage": 1.31}
{"variant": "UACGUAGGUGGUUUUCCCCUGAUAGUGCUAGGGGGGCCUGGAAGUUUGGACUGGGCAGAGCUCAACACAGCGUGGCAAAGUGGCUGUGGCUAGACUGCCUCUCUGGAUUUCUCGUCACUCAGCAGGGCAUCUCUGAGAGAAAUGCC", "note": "[A31G C110U]", "self-cleavage": 0.51}
{"variant": "UACGUAGGUGGUUUUCCCCUGAUAGUGCUAAGGGGGCCCGGAAGUUUGGACUGGGCAGAGCACAACACAGCGUGGCAAAGUGGCUGUGGCUAGACUGCCUCUCUGGAUUCCUCGUCACUCAGCAGGGCAUCUCUGAGAGAAAUGCC", "note": "[U39C U62A]", "self-cleavage": 0.04}
{"variant": "UACGUAGGUGGUUUUCCCCUGAUAGUGCUAAGGGGGCCUGGAAGUUUGGACUGGGCAGAGCUCAACACGGCGUGGCAAAGUGGCUGUGGCUAGACUGCCUCUCUGGAUUCCUCGUCAUUCAGCAGGGCAUCUCUGAGAGAAAUGCC", "note": "[A69G C118U]", "self-cleavage": 0.2}
{"variant": "UACGUAGGUGGUUUUCCCCUGGUAGUGCUAAGGGGGCCUGGAAGUUUGGACUGGGCAGAGCUCAACACAGCGUGGCAAAGUGGCUGUGGCUAGACUGUCUCUCUGGAUUCCUCGUCACUCAGCAGGGCAUCUCUGAGAGAAAUGCC", "note": "[A22G C98U]", "self-cleavage": 0.64}
